# Measured values as given in article PMC12072577, “Structure and Inhibition of the Human Na^+/H^+ Exchanger SLC9B2” (International Journal of Molecular Sciences, 2025).
# Columns and labels:
# [1] = target: the molecule itself; assay: cryo-EM structure; human NHA2∆N-Fab complex in MSP1E2 nanodiscs with yeast PI lipids; apo and with 1 mM phloretin
# [2] = target: T1, bison NHA2ΔN reconstituted into biotinylated proteoliposomes (bison, UniProt A0A6P3HVI0); assay: ELISA; liposome ELISA: biotinylated proteoliposomes with bison NHA2ΔN immobilised on streptavidin-coated microplates; hybridoma clones
# T1 construct: Sodium/proton exchanger NHA2 (SLC9B2) of bison, N-terminally truncated (ΔN); The biotin is on a lipid of the liposome, not on the protein; also called bison NHA2∆N; source: reconstituted with egg PC and a biotinylated lipid
# T1 sequence (A0A6P3HVI0 whole entry, stated change not applied, the tested form may be a part): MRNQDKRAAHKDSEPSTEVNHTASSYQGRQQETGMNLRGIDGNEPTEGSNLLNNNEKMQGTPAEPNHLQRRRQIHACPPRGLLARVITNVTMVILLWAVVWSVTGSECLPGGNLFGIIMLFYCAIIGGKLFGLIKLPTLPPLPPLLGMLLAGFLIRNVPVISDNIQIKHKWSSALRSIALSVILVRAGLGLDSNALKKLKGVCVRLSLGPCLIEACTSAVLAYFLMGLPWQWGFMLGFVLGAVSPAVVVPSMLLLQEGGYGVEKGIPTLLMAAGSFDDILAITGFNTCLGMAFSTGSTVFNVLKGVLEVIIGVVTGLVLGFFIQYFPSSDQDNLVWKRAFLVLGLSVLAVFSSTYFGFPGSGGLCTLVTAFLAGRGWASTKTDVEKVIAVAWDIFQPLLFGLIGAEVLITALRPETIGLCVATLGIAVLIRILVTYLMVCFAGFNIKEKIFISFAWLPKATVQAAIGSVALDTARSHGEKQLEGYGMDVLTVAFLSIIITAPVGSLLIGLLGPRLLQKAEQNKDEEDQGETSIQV
binder,measurement,setting,value
"Homo sapiens NHA2∆N (residues 59–537), tags removed with TEV protease, in MSP1E2 nanodiscs (domain or fragment, human, UniProt Q86UD5 59-537, looked up, Sodium/proton exchanger NHA2 (SLC9B2), Homo sapiens, residues 59-537; construct lacks the first 58 amino acids; The methods call the tags N-terminal, but the protein is named NHA2∆N-GFP; TEV protease was added after the nanodisc reconstitution and before the final SEC; also called human NHA2∆N; hsNHA2∆N; not shown: GFP, N-terminal, cleaved; TwinStrep, N-terminal, cleaved; His8, N-terminal, cleaved) LQETPTEANHVQRLRQMLACPPHGLLDRVITNVTIIVLLWAVVWSITGSECLPGGNLFGIIILFYCAIIGGKLLGLIKLPTLPPLPSLLGMLLAGFLIRNIPVINDNVQIKHKWSSSLRSIALSIILVRAGLGLDSKALKKLKGVCVRLSMGPCIVEACTSALLAHYLLGLPWQWGFILGFVLGAVSPAVVVPSMLLLQGGGYGVEKGVPTLLMAAGSFDDILAITGFNTCLGIAFSTGSTVFNVLRGVLEVVIGVATGSVLGFFIQYFPSRDQDKLVCKRTFLVLGLSVLAVFSSVHFGFPGSGGLCTLVMAFLAGMGWTSEKAEVEKIIAVAWDIFQPLLFGLIGAEVSIASLRPETVGLCVATVGIAVLIRILTTFLMVCFAGFNLKEKIFISFAWLPKATVQAAIGSVALDTARSHGEKQLEDYGMDVLTVAFLSILITAPIGSLLIGLLGPRLLQKVEHQNKDEEVQGETSVQV",stoichiometry N,[1],2
"mouse monoclonal antibody against bison NHA2∆N (parent of the Fab) (antibody, V domains shown, Fab part as the heavy chain of m2 (in PDB 9QUB and 9QUW); as the light chain of m2 (in PDB 9QUB and 9QUW); Whole antibody of the selected hybridoma clone; also called antibody clone; source: mouse hybridoma (MRL/lpr mice immunised with bison NHA2 proteoliposomes)) VH: EVQLQESGPELVKPGASVKMSCKASGYTFTNYFIHWVKQKPGQGLEWIGYINPYNDITKFNEKFKGKATLTSDKSSRTAYMELSSLTSEDSAVYYCARCDGYYRYYAMDYWGQGTSVTVSS VL: DIVMTQTTSSLSASLGDRVTISCRASQDISNYLNWFQQKPDGTVKLLICYTSRLHSGVPSRFSGSGSGTDYSLTISNLEQEDIATYFCQQDSKHPWTFGGGTKLEIK",binding result,[2],binds
